Assay results as given in article PMC11236177.

Key:
[1] = biological target: recombinant PfPKG quintuple mutant STmut (Plasmodium falciparum) (UniProt Q8I719)
[2] = biological target: recombinant wild-type PfPKG (Plasmodium falciparum) (UniProt Q8I719)

PKAtide (peptide)
PKAtide concentration at half maximal velocity (Km), ParM-ADP real-time fluorescence kinase assay [1]: 13 µM
PKAtide concentration at half maximal velocity (Km), ParM-ADP real-time fluorescence kinase assay [2]: 10 µM
